Here are results for 24 substances from patent US20250304628A1.

In experiment [1] the target is IgG. As to the kind of experiment: SPR, Biacore 4000; IgG immobilised on CM5 chip, mutant as analyte.
The target in experiment [2] is IgG. As to the kind of experiment: dynamic binding capacity at 10% breakthrough; ligand coupled to agarose medium, IgG 1 mg/ml loaded, before alkali treatment.
Experiment [3] has as its target IgG. As to the kind of experiment: dynamic binding capacity at 10% breakthrough; ligand coupled to agarose medium; after 24 h of 1 M NaOH treatment (2 h cycles).
Experiment [4] has as its target IgG. As to the kind of experiment: dynamic binding capacity at 10% breakthrough; ligand coupled to agarose medium; after 24 h of 1 M NaOH treatment, relative to initial capacity.

For the substance Z(E15D)4 (designed binder), in experiment [1], the Kd (usually the free concentration of one partner at which half of the binding sites on the other are occupied at equilibrium, for simple one-to-one binding) stood at 1.13 nM. For the same substance, the Initial IgG capability (dynamic binding capacity at 10% breakthrough) in experiment [2] was 145 mg/mL. The substance further returned a Remaining IgG capacity after 24 hours (dynamic binding capacity at 10% breakthrough) in experiment [3] of 21.6 mg/mL. The same substance showed a Remaining IgG capacity after 24 hours (% of initial) in experiment [4] of 14.9%.

As for Z(E15F)4 (designed binder), the Kd in experiment [1] came out at 3.99 nM. In experiment [2], this substance yielded an Initial IgG capability (dynamic binding capacity at 10% breakthrough) of 155 mg/mL. This substance also registered a Remaining IgG capacity after 24 hours (dynamic binding capacity at 10% breakthrough) in experiment [3] of 35.5 mg/mL. In experiment [4], this substance registered a Remaining IgG capacity after 24 hours (% of initial) of 22.8%.

In experiment [1], Z(E15I)4 (designed binder) had a Kd of 2.55 nM. In experiment [2], the Initial IgG capability (dynamic binding capacity at 10% breakthrough) came out at 187 mg/mL. In experiment [3], the Remaining IgG capacity after 24 hours (dynamic binding capacity at 10% breakthrough) came to 33 mg/mL. In addition, the Remaining IgG capacity after 24 hours (% of initial) in experiment [4] turned out to be 17.7%.

In experiment [1], Z(E15L)4 (designed binder) had a Kd of 1.25 nM. In experiment [2], this substance showed an Initial IgG capability (dynamic binding capacity at 10% breakthrough) of 157 mg/mL. Besides, the Remaining IgG capacity after 24 hours (dynamic binding capacity at 10% breakthrough) in experiment [3] turned out to be 63 mg/mL. This substance also registered a Remaining IgG capacity after 24 hours (% of initial) in experiment [4] of 40.1%.

In experiment [1], Z(E15S)4 (designed binder) came in with a Kd of 1.78 nM. Further, the Initial IgG capability (dynamic binding capacity at 10% breakthrough) in experiment [2] was found to be 165 mg/mL. Besides, the Remaining IgG capacity after 24 hours (dynamic binding capacity at 10% breakthrough) in experiment [3] is 72 mg/mL. The substance also displayed a Remaining IgG capacity after 24 hours (% of initial) in experiment [4] of 43.6%.

In turn, Z(E15T)4 (designed binder) returned a Kd in experiment [1] of 4.71 nM. The substance also returned an Initial IgG capability (dynamic binding capacity at 10% breakthrough) in experiment [2] of 176 mg/mL. Also, the Remaining IgG capacity after 24 hours (dynamic binding capacity at 10% breakthrough) in experiment [3] was found to be 45.5 mg/mL. This substance also gave a Remaining IgG capacity after 24 hours (% of initial) in experiment [4] of 25.9%.

In the case of Z(E15V)4 (designed binder), the Kd in experiment [1] is 2.66 nM. This substance had an Initial IgG capability (dynamic binding capacity at 10% breakthrough) in experiment [2] of 133 mg/mL. The same substance gave a Remaining IgG capacity after 24 hours (dynamic binding capacity at 10% breakthrough) in experiment [3] of 33.2 mg/mL. Moreover, the Remaining IgG capacity after 24 hours (% of initial) in experiment [4] came to 24.9%.

The substance Z(E15W)4 (designed binder) displayed a Kd in experiment [1] of 1.54 nM. For the same substance, the Initial IgG capability (dynamic binding capacity at 10% breakthrough) in experiment [2] came to 165 mg/mL. Besides, the Remaining IgG capacity after 24 hours (dynamic binding capacity at 10% breakthrough) in experiment [3] is 38.1 mg/mL. This substance had a Remaining IgG capacity after 24 hours (% of initial) in experiment [4] of 23.2%.

Regarding Z(E15Y)4 (designed binder), the Kd in experiment [1] is 2.92 nM. In addition, the Initial IgG capability (dynamic binding capacity at 10% breakthrough) in experiment [2] worked out at 174 mg/mL. The substance also displayed a Remaining IgG capacity after 24 hours (dynamic binding capacity at 10% breakthrough) in experiment [3] of 48.6 mg/mL. In experiment [4], this substance came in with a Remaining IgG capacity after 24 hours (% of initial) of 28%.

Substance “Z(N3L, N6E, Q9F, E15L, N23I)4 (designed binder)” showed an Initial IgG capability (dynamic binding capacity at 10% breakthrough) in experiment [2] of 148 mg/mL. The same substance displayed a Remaining IgG capacity after 24 hours (dynamic binding capacity at 10% breakthrough) in experiment [3] of 65 mg/mL. This substance had a Remaining IgG capacity after 24 hours (% of initial) in experiment [4] of 44%.

In experiment [1], “Z(N3L, N6E, Q9I, E15I, N23I)4 (designed binder)” registered a Kd of 2.57 nM. The substance further displayed an Initial IgG capability (dynamic binding capacity at 10% breakthrough) in experiment [2] of 161 mg/mL. Further, in experiment [3], the Remaining IgG capacity after 24 hours (dynamic binding capacity at 10% breakthrough) was 57.2 mg/mL. Further, the Remaining IgG capacity after 24 hours (% of initial) in experiment [4] was 35.4%.

In experiment [2], “Z(N3L, N6E, Q9I, E15I, N23I)6 (designed binder)” registered an Initial IgG capability (dynamic binding capacity at 10% breakthrough) of 149 mg/mL. Moreover, the Remaining IgG capacity after 24 hours (dynamic binding capacity at 10% breakthrough) in experiment [3] turned out to be 87.8 mg/mL. The Remaining IgG capacity after 24 hours (% of initial) in experiment [4] is 58.8%.

On to “Z(N3L, N6L, Q9F, E15I, N23V)4 (designed binder)”, for which the Initial IgG capability (dynamic binding capacity at 10% breakthrough) in experiment [2] came to 151 mg/mL. The substance also came in with a Remaining IgG capacity after 24 hours (dynamic binding capacity at 10% breakthrough) in experiment [3] of 68.4 mg/mL. In experiment [4], this substance gave a Remaining IgG capacity after 24 hours (% of initial) of 45.2%.

As for “Z(N3L, N6L, Q9F, E15I, N23V)6 (designed binder)”, the Initial IgG capability (dynamic binding capacity at 10% breakthrough) in experiment [2] stood at 175 mg/mL. In experiment [3], the Remaining IgG capacity after 24 hours (dynamic binding capacity at 10% breakthrough) came out at 112 mg/mL. For the same substance, the Remaining IgG capacity after 24 hours (% of initial) in experiment [4] turned out to be 63.9%.

In experiment [1], “Z(N3L, N6L, Q9I, E15L)4 (designed binder)” returned a Kd of 2.09 nM. Also, the Initial IgG capability (dynamic binding capacity at 10% breakthrough) in experiment [2] is 179 mg/mL. The Remaining IgG capacity after 24 hours (dynamic binding capacity at 10% breakthrough) in experiment [3] came out at 70.2 mg/mL. Besides, in experiment [4], the Remaining IgG capacity after 24 hours (% of initial) was found to be 39.2%.

“Z(N3L, N6L, Q9I, E15L, N23V)4 (designed binder)” registered a Kd in experiment [1] of 2.33 nM. In addition, the Initial IgG capability (dynamic binding capacity at 10% breakthrough) in experiment [2] is 159 mg/mL. This substance also displayed a Remaining IgG capacity after 24 hours (dynamic binding capacity at 10% breakthrough) in experiment [3] of 45.3 mg/mL. The Remaining IgG capacity after 24 hours (% of initial) in experiment [4] was 28.5%.

For “Z(N3L, Q9I, E15L, N23V)4 (designed binder)”, in experiment [1], the Kd worked out at 4.41 nM. For the same substance, the Initial IgG capability (dynamic binding capacity at 10% breakthrough) in experiment [2] worked out at 166 mg/mL. In addition, the Remaining IgG capacity after 24 hours (dynamic binding capacity at 10% breakthrough) in experiment [3] was found to be 42.1 mg/mL. The same substance came in with a Remaining IgG capacity after 24 hours (% of initial) in experiment [4] of 25.4%.

Turning to “Z(N3V, N6E, Q9I, E15L)4 (designed binder)”, the dissociation constant Kd in experiment [1] was 2.72 nM. Further, the Initial IgG capability (dynamic binding capacity at 10% breakthrough) in experiment [2] was determined as 177 mg/mL. The substance also had a Remaining IgG capacity after 24 hours (dynamic binding capacity at 10% breakthrough) in experiment [3] of 110 mg/mL. The substance further had a Remaining IgG capacity after 24 hours (% of initial) in experiment [4] of 62.2%.

In experiment [1], “Z(N3V, N6L, Q9F, E15V, N23Y)4 (designed binder)” came in with a Kd of 2.76 nM. The substance also showed an Initial IgG capability (dynamic binding capacity at 10% breakthrough) in experiment [2] of 169 mg/mL. In experiment [3], the Remaining IgG capacity after 24 hours (dynamic binding capacity at 10% breakthrough) stood at 67.9 mg/mL. Further, the Remaining IgG capacity after 24 hours (% of initial) in experiment [4] was determined as 40.1%.

In experiment [2], “Z(N3V, N6L, Q9I, E15V, N23Y)6 (designed binder)” gave an Initial IgG capability (dynamic binding capacity at 10% breakthrough) of 190 mg/mL. This substance also showed a Remaining IgG capacity after 24 hours (dynamic binding capacity at 10% breakthrough) in experiment [3] of 103 mg/mL. In addition, the Remaining IgG capacity after 24 hours (% of initial) in experiment [4] was 54.2%.

Take “Z(N6L, Q9F, E15I, N23V)4 (designed binder)”: the Kd in experiment [1] stood at 3.98 nM. Further, in experiment [2], the Initial IgG capability (dynamic binding capacity at 10% breakthrough) turned out to be 186 mg/mL. This substance also had a Remaining IgG capacity after 24 hours (dynamic binding capacity at 10% breakthrough) in experiment [3] of 68.2 mg/mL. The substance further displayed a Remaining IgG capacity after 24 hours (% of initial) in experiment [4] of 36.7%.

In experiment [1], Z(Q9F)4 (designed binder) had a Kd of 1.74 nM. The Initial IgG capability (dynamic binding capacity at 10% breakthrough) in experiment [2] came to 182 mg/mL. Besides, the Remaining IgG capacity after 24 hours (dynamic binding capacity at 10% breakthrough) in experiment [3] turned out to be 37.2 mg/mL. This substance returned a Remaining IgG capacity after 24 hours (% of initial) in experiment [4] of 20.4%.

On to Z(Q9I)4 (designed binder), for which, in experiment [2], the Initial IgG capability (dynamic binding capacity at 10% breakthrough) stood at 143 mg/mL. The substance further registered a Remaining IgG capacity after 24 hours (dynamic binding capacity at 10% breakthrough) in experiment [3] of 39.6 mg/mL. The Remaining IgG capacity after 24 hours (% of initial) in experiment [4] was 27.6%.

In experiment [1], Z(Q9M)4 (designed binder) returned a Kd of 2.46 nM. In experiment [2], this substance registered an Initial IgG capability (dynamic binding capacity at 10% breakthrough) of 136 mg/mL. In experiment [3], this substance returned a Remaining IgG capacity after 24 hours (dynamic binding capacity at 10% breakthrough) of 42.6 mg/mL. Also, in experiment [4], the Remaining IgG capacity after 24 hours (% of initial) stood at 31.5%.
